# Earlier results as cited in PMC5668312.
# What was measured:
# [1] = target: Vps2 (Saccharomyces cerevisiae) (UniProt P36108)
# [2] = target: CHMP1B (Homo sapiens) (UniProt Q7LBR1)
# CHMP1B (Homo sapiens), sequence (Q7LBR1 whole entry): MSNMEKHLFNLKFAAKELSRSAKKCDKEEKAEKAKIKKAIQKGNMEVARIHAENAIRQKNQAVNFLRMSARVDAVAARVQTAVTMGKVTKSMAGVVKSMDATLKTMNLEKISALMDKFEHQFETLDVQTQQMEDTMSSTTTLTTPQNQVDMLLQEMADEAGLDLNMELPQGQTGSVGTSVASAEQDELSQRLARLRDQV
# Vps2 (Saccharomyces cerevisiae), sequence (P36108 whole entry): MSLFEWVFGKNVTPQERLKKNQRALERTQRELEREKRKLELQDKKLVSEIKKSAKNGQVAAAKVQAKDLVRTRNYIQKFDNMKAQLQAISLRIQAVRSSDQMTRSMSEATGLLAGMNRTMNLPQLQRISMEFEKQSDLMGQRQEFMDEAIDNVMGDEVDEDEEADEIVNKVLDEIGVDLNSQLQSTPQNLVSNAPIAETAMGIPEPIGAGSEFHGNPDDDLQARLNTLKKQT
# Vps4 MIT, sequence (P52917 1-83): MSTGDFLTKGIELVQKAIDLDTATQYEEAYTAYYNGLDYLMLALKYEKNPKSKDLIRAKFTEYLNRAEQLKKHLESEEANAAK
# spastin MIT, sequence (Q9UBP0 117-198): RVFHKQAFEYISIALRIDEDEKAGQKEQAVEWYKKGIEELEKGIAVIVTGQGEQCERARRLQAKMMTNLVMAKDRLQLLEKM
Kd [1],Kd [2],Substance
30 µM,–,Vps4 MIT (from UniProt P52917)
–,12 µM,spastin MIT (from UniProt Q9UBP0)
